In patent US12102672B2, “Immunogenic sequences from a phage tail length tape measure protein, bacteria expressing the same and their use in treating a cancer” (INSTITUT GUSTAVE ROUSSY, priority 2017, dated 2024):

Key:
[1] = target: HLA-A*0201 with TMP peptide … on peptide-pulsed autologous cells (human; Enterococcus hirae 13144 (prophage 2, TMP))
[2] = target: HLA-A*0201 with TMP peptide […] on peptide-pulsed autologous cells (human; Enterococcus hirae 13144 (prophage 2, TMP))
[3] = system: prophage 1 and 2 of EH13144; details: mitomycin C 1 μg/ml; 37° C. and 42° C.; without capside disruption
From the text: Protocol for phage excision by mitomycin C.
PCR was run to detect specific sequences of the prophage 1 or 2.

## CD8+ T cells from PBMC of six HLA-A2+ healthy volunteers (cells without a defined receptor)
[1]
  IFNγ ELISPOT after in vitro stimulation: 50 % of HV
[2]
  IFNγ ELISPOT after in vitro stimulation: 50 % of HV

## CO[C@@]12[C@H](COC(N)=O)C3=C(C(=O)C(C)=C(N)C3=O)N1C[C@@H]1N[C@@H]12 [mitomycin C]
[3]
  prophage 1 and 2 excision from EH13144: prophage 1 and 2 excision
